From PMC7269092

Target: NLuc-NS2B-E66stop (DENV2)
Assay: split reporter

Substance “MBP-NS3 (from UniProt P29990 1476-2093) (enzyme)” has an IC50 of 2.5 µM.
